According to US20210386836:

T1: C2a, P06681
T1 chain: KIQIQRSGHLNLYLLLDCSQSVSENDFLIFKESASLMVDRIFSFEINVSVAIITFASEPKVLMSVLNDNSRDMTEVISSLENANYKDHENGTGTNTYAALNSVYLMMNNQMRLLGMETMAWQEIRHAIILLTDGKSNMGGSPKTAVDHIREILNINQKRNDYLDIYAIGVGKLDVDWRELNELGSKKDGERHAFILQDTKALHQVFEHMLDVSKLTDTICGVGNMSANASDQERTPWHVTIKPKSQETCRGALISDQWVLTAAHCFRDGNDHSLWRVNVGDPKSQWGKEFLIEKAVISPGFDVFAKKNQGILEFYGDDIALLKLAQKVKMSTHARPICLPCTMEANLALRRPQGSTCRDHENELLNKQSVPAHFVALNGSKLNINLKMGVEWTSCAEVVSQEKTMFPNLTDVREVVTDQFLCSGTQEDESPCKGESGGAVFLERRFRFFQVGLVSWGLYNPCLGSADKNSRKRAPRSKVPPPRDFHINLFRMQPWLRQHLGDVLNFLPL

T2: C1s, P09871
T2 chain: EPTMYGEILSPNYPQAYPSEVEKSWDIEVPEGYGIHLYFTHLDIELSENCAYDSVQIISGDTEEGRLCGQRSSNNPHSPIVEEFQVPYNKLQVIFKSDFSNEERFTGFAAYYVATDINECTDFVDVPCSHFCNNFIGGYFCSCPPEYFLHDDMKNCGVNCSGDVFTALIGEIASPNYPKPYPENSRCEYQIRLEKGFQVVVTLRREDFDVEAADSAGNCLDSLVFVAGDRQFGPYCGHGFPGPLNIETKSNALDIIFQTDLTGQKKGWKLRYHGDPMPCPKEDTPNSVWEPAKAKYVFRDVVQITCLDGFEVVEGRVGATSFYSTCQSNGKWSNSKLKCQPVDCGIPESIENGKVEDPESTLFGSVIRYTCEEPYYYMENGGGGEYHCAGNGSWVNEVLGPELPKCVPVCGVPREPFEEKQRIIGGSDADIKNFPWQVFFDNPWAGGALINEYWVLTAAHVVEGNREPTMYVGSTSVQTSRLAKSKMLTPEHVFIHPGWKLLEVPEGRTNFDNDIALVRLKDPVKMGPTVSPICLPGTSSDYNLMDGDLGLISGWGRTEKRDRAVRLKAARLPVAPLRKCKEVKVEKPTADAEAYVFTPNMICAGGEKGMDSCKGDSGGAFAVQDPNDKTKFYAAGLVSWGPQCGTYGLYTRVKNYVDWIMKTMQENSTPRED

T3: C-Reactive protein, P02741
T3 chain: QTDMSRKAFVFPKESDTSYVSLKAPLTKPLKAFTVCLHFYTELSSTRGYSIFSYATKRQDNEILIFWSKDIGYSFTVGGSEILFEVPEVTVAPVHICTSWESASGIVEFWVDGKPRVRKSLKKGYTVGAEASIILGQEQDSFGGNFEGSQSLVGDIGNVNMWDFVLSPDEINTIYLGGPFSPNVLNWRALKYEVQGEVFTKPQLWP

T4: C1 inhibitor, P05155
T4 chain: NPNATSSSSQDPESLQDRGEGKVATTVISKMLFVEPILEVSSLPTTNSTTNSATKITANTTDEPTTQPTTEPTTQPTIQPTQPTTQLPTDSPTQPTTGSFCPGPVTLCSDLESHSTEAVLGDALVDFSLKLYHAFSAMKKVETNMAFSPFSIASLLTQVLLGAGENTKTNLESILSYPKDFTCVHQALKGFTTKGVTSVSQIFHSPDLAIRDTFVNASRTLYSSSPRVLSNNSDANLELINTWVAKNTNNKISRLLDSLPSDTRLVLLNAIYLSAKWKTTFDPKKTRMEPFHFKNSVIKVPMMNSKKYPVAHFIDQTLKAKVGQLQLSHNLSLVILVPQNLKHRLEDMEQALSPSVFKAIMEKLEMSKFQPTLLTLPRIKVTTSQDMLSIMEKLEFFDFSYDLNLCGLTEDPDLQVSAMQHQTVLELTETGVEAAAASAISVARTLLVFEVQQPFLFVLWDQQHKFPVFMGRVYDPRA

T5: C4-Binding protein, P04003
T5 chain 1: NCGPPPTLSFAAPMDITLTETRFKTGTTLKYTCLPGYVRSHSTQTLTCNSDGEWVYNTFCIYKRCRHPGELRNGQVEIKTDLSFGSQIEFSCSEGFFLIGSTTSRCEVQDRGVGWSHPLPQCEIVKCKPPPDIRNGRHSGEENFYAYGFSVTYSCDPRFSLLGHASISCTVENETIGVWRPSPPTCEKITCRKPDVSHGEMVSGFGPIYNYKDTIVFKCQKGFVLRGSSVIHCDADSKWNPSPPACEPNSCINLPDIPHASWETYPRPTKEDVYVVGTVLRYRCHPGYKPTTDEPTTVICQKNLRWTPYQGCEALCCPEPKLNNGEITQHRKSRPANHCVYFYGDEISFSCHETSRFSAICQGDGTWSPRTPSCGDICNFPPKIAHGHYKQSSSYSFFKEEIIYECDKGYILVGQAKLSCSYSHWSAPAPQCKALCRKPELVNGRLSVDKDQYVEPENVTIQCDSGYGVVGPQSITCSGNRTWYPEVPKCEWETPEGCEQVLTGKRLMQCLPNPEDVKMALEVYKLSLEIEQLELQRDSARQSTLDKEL
T5 chain 2: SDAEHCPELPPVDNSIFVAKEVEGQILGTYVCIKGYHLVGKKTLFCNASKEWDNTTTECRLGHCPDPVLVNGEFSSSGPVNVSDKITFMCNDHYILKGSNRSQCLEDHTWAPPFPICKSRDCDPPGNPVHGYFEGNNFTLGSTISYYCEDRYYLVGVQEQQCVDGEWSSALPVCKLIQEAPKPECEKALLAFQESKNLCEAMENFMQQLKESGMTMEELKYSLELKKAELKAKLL

B1: PrtV(Pro-B) (protein)
chain: DTVNGSESVKTEATQASGSSVQDNATAKTTVTTNSNSSNNVSNVQTDTVKEAATSNVDSVASQNQATTAQQAKTTADTADQTVPPTTYKDHVKGNVQTAWDNGYKGQGMVVAVIDSGADTNHKDFSKAPESPAISKEDADKKISELGYGKYASEKFPFVYNYASRDNNWVKDDGPDASEHGQHVAGIIGADGQPNGNERYAVGVAPETQLMMMRVFNDQFADENTDDIAQAIYDAVKLGANVIQMSLGQGVAAANLNDVEQKAVEYATQHGVFVSISASNNGNSASVTGEEVPYKPGGADGNFEPFSSSTVANPGASRNAMTVAAENSVVGAGDDMADFSSWGPLQDFTLKPDVSAPGVSVTSTGNDNRYNTMSGTSMAGPFNAGVAALVMQRLKATTNLNGADLVQATKALIMNTAKPMTQQGYDTPVSPRRQGAGEIDAGAATESPVYVVAADGTSSVSLRKVGDSTQFALTFKNLSDKDQTYTFDDFGGGLTEVRDADTGTFHDVYLAGAHVYGNKTVTVKAGQSATYNFTLSLTGLKENQLVEGWLRFVGNDGQNQLVVPYLAYYGDMTSEDVFDKAANQEGTVYGGNYFVNEDNYPRGVADEDSLKALVNLEGNYNWQQVAKLYQDGKVAFSPNADGKSDLLKPYAFVKQNLKDLKVEVLDKSGKVVRVVADEQGLDKSYYESGVNKDVTLSVSMRNNPNTLAWDGKVYDDKAGEMVNAADGEYTYRYVATLYNDGVNKVQTADYPVVIDTTAPVLSNVKYDAATHTLSFDYKDTGSGFTDYSYAVVKVNDKTFGYKLNDGKNSKFLDAAKTSGTFKAVLGSDTLAALTAAKNALSVAVSDVADNTSTVTLLVNGNNDATTKVSVWNATNGLELDQSSPDYQAATSTYNLRGNATSDFYYNGALVQVDNSGNFVVPVSTSDTAVVFTSDAAGKNVVYKLNTATPKAVFAWQVNNTVKENFGIVLDTVVSNNKDDVVVQAAVTKGDNVEAYARDYFTGAVYKADVKDGLATFHVKVTNNSGRTVLLGWTEVVGPTFNDVQRTSANGVYLGVDTDTENPTPAPAFTSADQLGTNVVQEKADSATIGNPGDLPGHSLKDLTTRADANPDIHFDYLKDNDYNWVGAQAVKDGVYNPSTQVFTLTGKVDPNVKSLVVLGDSYNEDDPVNKVNLNSDGTFSFQFHTAPTSQRPVAYIYTKDDGSTTRGTMELILDTVLPTLSLNNVANLQLDSNGDYQVYTNNKDFSVSGEATDNLDGYRFFFNGDNDYREFHNSGVNFVAEAHQDGSTVTNPYPAYKFSKTFNLADATGETTHVYTLSVVDLTGNTVTRKFYVHY
B2: PrtI(ProB) (protein)
chain: AIGETSVQNVKVSVAKNESDSQKFNNSQNLEQKTPQAAAANQNGSQVQNDHTETQLQNQQTTQSQVTQAHTEENNASSIPEPANQADHVKGNVQSAWDQGYKGQNTVVAVIDSGADTSHKDFQTMPSNPKLKQEDVQSKIDQQGYGKYVNEKFPYVYNYADRDNDYIKSDDNNQXNDSPHGQHVSGIIAADGHPEGDQQYVVGVAPEAQLMQLRVFGQFSDEKTDDVARAIYDATNLGADVIQMSLGQGVADQQLTNIEQKAVQYAIDHGVFVSISASNNGNSASVDNPSKVTAKGYGSGSEAGNYEPLNSGTVANPGASKNALTVAAETSGTGKDSDMASFSSWGPLSDFSLKPDLSAPGYQVVSTVNDNQYQTMSGTSMAGPFAAGSAALVIQRLKQTNPELKGAELVAATKALLMNSAKVQTQNGYTTPVSPRRQGAGQIDVGAATANPVYVTAADGTSSLSLRQVDEKTTFTLTFHNLTDQEQSYSFNDLGGGYTEQRDPDSGVFHEVQLAGAHVNGVGNFTLAPKEVKDLQYTLDLQGLNKNQPVEGWLHFTNDKDKSTVVVPYLAYYGDLTSENVFDQNANEEKPDIQGNRFVNENNYPLGVTDQESLKQLVNVDSDYNWQEVAKLYESGKVAFSPNDDHQSDLIKPYAYLKQNVKDLKVEILDAKGNVVRVVSDVQGVDKSYDESGVTKDASLSVSMRDNPDAFEWDGKVYDTKTGQMVTAPDGQYTYRFVATLWNEGPNQKQTADFPVVVDTQAPSLSVKYDSATHTLSGNYEDKGAGFTDYSYVTVQVNDKVFGYKLNEGESGFDNSEKTKGHFNFTLSSDALDALSGSLNKVSVTLSDVANNTTVKTVDVPAVKDQPAVSVWNATEGVEFNKNSKDYNKENDTYTLYGSAAQDFYLNGALVQVRDGKYEVPVKTTTQDLVFSTDQAGKNVLKSFTTFTPKAFFNWQNVDGFDGNFGVNIYSVKTNDPNNAVVQAAVPLGKNVKAYAQDYFTGEVYKGQVENGVATFHVHTSINQGEDGIFKRALLTGWSEVDGPAYNDKQVTSKAGVASSNHLGVYYTTDKVNRKVYTDRADLGVDVQDEAADLSSFGPTAYPGHALADLTTRTDPNPAIHFDYLNDNDTTRFGQNAVTDGYYDSVTKKFTVTGHVDPEVKSLTVLGDSSDENAPQNQVKLGKDGKFSFSFTTENVGQRPVAYIYTDQNGQKVRGTLNVVLDTVAPTLNVDQVNGNELEVKTNNPLFKLSGVVNDNLDGYRLYVNGNNIYREFLNSGYNKLAGLNTDGTDVNPYGPHNFEESFNLNDDNNQPTTHVFTIYVVDQVGNKVEKKIAVNYDPDYVA
modifications: not fully specified; X: residue not identified in the source

Assays:
C2a, P06681 = molecular target: T1, C2a, P06681
C1s, P09871 = molecular target: T2, C1s, P09871
[1] = molecular target: T3, C-Reactive protein, P02741
C1 inhibitor, P05155 = molecular target: T4, C1 inhibitor, P05155
[2] = molecular target: T5, C4-Binding protein, P04003

Protein	proteolytic activity (SDS-PAGE) (C2a, P06681)	proteolytic activity (SDS-PAGE) (C1s, P09871)	proteolytic activity (SDS-PAGE) [1]	proteolytic activity (SDS-PAGE) (C1 inhibitor, P05155)	proteolytic activity (SDS-PAGE) [2]	proteolytic activity (SDS-PAGE) (C5, P01031)
B1	None of the complement proteins tested show evidence of breakdown	None of the complement proteins tested show evidence of breakdown	None of the complement proteins tested show evidence of breakdown	None of the complement proteins tested show evidence of breakdown	None of the complement proteins tested show evidence of breakdown	None of the complement proteins tested show evidence of breakdown
B2	None of the complement proteins tested show evidence of breakdown	None of the complement proteins tested show evidence of breakdown	None of the complement proteins tested show evidence of breakdown	None of the complement proteins tested show evidence of breakdown	None of the complement proteins tested show evidence of breakdown	None of the complement proteins tested show evidence of breakdown
